{"source": "paper PMC12456131", "molecules": {"B1": {"name": "CD163 receptor, HA-tagged (pCAGGS-CD163-HA), Q2VL90 R561del (protein)", "chain": "KDKELRLTGGENKCSGRVEVKVQEEWGTVCNNGWDMDVVSVVCRQLGCPTAIKATGWANFSAGSGRIWMDHVSCRGNESALWDCKHDGWGKHNCTHQQDAGVTCSDGSDLEMGLVNGGNRCLGRIEVKFQGRWGTVCDDNFNINHASVVCKQLECGSAVSFSGSANFGEGSGPIWFDDLVCNGNESALWNCKHEGWGKHNCDHAEDAGVICLNGADLKLRVVDGVTECSGRLEVKFQGEWGTICDDGWDSDDAAVACKQLGCPTAVTAIGRVNASEGTGHIWLDSVSCHGHESALWQCRHHEWGKHYCNHDEDAGVTCSDGSDLELRLKGGGSHCAGTVEVEIQKLVGKVCDRSWGLKEADVVCRQLGCGSALKTSYQVYSKTKATNTWLFVSSCNGNETSLWDCKNWQWGGLSCDHYDEAKITCSAHRKPRLVGGDIPCSGRVEVQHGDTWGTVCDSDFSLEAASVLCRELQCGTVVSLLGGAHFGEGSGQIWAEEFQCEGHESHLSLCPVAPPDGTCSHSRDVGVVCSRYTQIRLVNGKTPCEGRVELNILGSWGSLCNSHWDMEDAHVLCQQLKCGVALSIPGGAPFGKGSEQVWRHMFHCTGTEKHMGDCSVTALGASLCSSGQVASVICSGNQSQTLSPCNSSSSDPSSSIISEENGVACIGSGQLRLVDGGGRCAGRVEVYHEGSWGTICDDSWDLNDAHVVCKQLSCGWAINATGSAHFGEGTGPIWLDEINCNGKESHIWQCHSHGWGRHNCRHKEDAGVICSEFMSLRLISENSRETCAGRLEVFYNGAWGSVGRNSMSPATVGVVCRQLGCADRGDISPASSDKTVSRHMWVDNVQCPKGPDTLWQCPSSPWKKRLASPSEETWITCANKIRLQEGNTNCSGRVEIWYGGSWGTVCDDSWDLEDAQVVCRQLGCGSALEAGKEAAFGQGTGPIWLNEVKCKGNETSLWDCPARSWGHSDCGHKEDAAVTCSEIAKSRESLHATGRSSFVALAIFGVILLACLIAFLIWTQKRRQRQRLSVFSGGENSVHQIQYREMNSCLKADETDMLNPSGDHSEVQ"}, "B2": {"name": "CD163 receptor, HA-tagged (pCAGGS-CD163-HA), Q2VL90 R561A (protein)", "chain": "KDKELRLTGGENKCSGRVEVKVQEEWGTVCNNGWDMDVVSVVCRQLGCPTAIKATGWANFSAGSGRIWMDHVSCRGNESALWDCKHDGWGKHNCTHQQDAGVTCSDGSDLEMGLVNGGNRCLGRIEVKFQGRWGTVCDDNFNINHASVVCKQLECGSAVSFSGSANFGEGSGPIWFDDLVCNGNESALWNCKHEGWGKHNCDHAEDAGVICLNGADLKLRVVDGVTECSGRLEVKFQGEWGTICDDGWDSDDAAVACKQLGCPTAVTAIGRVNASEGTGHIWLDSVSCHGHESALWQCRHHEWGKHYCNHDEDAGVTCSDGSDLELRLKGGGSHCAGTVEVEIQKLVGKVCDRSWGLKEADVVCRQLGCGSALKTSYQVYSKTKATNTWLFVSSCNGNETSLWDCKNWQWGGLSCDHYDEAKITCSAHRKPRLVGGDIPCSGRVEVQHGDTWGTVCDSDFSLEAASVLCRELQCGTVVSLLGGAHFGEGSGQIWAEEFQCEGHESHLSLCPVAPAPDGTCSHSRDVGVVCSRYTQIRLVNGKTPCEGRVELNILGSWGSLCNSHWDMEDAHVLCQQLKCGVALSIPGGAPFGKGSEQVWRHMFHCTGTEKHMGDCSVTALGASLCSSGQVASVICSGNQSQTLSPCNSSSSDPSSSIISEENGVACIGSGQLRLVDGGGRCAGRVEVYHEGSWGTICDDSWDLNDAHVVCKQLSCGWAINATGSAHFGEGTGPIWLDEINCNGKESHIWQCHSHGWGRHNCRHKEDAGVICSEFMSLRLISENSRETCAGRLEVFYNGAWGSVGRNSMSPATVGVVCRQLGCADRGDISPASSDKTVSRHMWVDNVQCPKGPDTLWQCPSSPWKKRLASPSEETWITCANKIRLQEGNTNCSGRVEIWYGGSWGTVCDDSWDLEDAQVVCRQLGCGSALEAGKEAAFGQGTGPIWLNEVKCKGNETSLWDCPARSWGHSDCGHKEDAAVTCSEIAKSRESLHATGRSSFVALAIFGVILLACLIAFLIWTQKRRQRQRLSVFSGGENSVHQIQYREMNSCLKADETDMLNPSGDHSEVQ"}}, "test_in_all_cases": "co-IP (IP: Strep, western blot bands quantified with ImageJ)", "key": {"[1]": {"target": "GP4 of PRRSV HuN4-F112, Strep-tagged (pCAGGS-GP4-Strep)", "conditions": "plasmids cotransfected into HEK-293T cells; parent: est. 0.86; read off a plot"}, "[2]": {"target": "CD163 receptor, HA-tagged (pCAGGS-CD163-HA) (UniProt Q2VL90)", "conditions": "plasmids cotransfected into HEK-293T cells, read off a plot"}, "[3]": {"target": "GP2a of PRRSV HuN4-F112, Strep-tagged (pCAGGS-GP2a-Strep)", "conditions": "chain shown with the change; plasmids cotransfected into HEK-293T cells; parent: est. 2.9; read off a plot"}}, "data": [{"molecule": "CD163 receptor, HA-tagged (pCAGGS-CD163-HA) (from UniProt Q2VL90) R561A", "values": [{"measurement": "response (relative ratio of CD163/GP4)", "setting": "[1]", "value": 0.64}]}, {"molecule": "CD163 receptor, HA-tagged (pCAGGS-CD163-HA) (from UniProt Q2VL90) R561del", "values": [{"measurement": "response (relative ratio of CD163/GP4)", "setting": "[1]", "value": 0.27}]}, {"molecule": "GP2a of PRRSV HuN4-F112, Strep-tagged (pCAGGS-GP2a-Strep) V118I", "values": [{"measurement": "response (relative ratio of CD163/GP2)", "setting": "[2]; parent: est. 0.18", "value": 0.67}]}, {"molecule": "GP2a of PRRSV HuN4-F112, Strep-tagged (pCAGGS-GP2a-Strep) V118del", "values": [{"measurement": "response (relative ratio of CD163/GP2)", "setting": "[2]; parent: est. 0.61", "value": 0.23}]}, {"molecule": "GP4 of PRRSV HuN4-F112, Strep-tagged (pCAGGS-GP4-Strep) N43D", "values": [{"measurement": "response (relative ratio of CD163/GP4)", "setting": "[2]; parent: est. 0.74", "value": 1.4}]}, {"molecule": "GP4 of PRRSV HuN4-F112, Strep-tagged (pCAGGS-GP4-Strep) N43del", "values": [{"measurement": "response (relative ratio of CD163/GP4)", "setting": "[2]; parent: est. 1.2", "value": 0.57}]}, {"molecule": "B1", "values": [{"measurement": "response (relative ratio of CD163/GP2)", "setting": "[3]", "value": 1.8}]}, {"molecule": "B2", "values": [{"measurement": "response (relative ratio of CD163/GP2)", "setting": "[3]", "value": 1.8}]}]}
